Experimental data taken from publication PMC10345426, “Structural polymorphism of the PH domain in TFIIH” (Bioscience Reports, 2023).
Read-outs that look alike come from different tables or passages of the source. Each block holds one molecule with its values, some of them ahead of it.

Tests used:
[1] = molecular target: TFIIH p62 PH (Homo sapiens) (UniProt P32780); conditions: cited from earlier work
[2] = molecular target: TFIIH p62 PH (Homo sapiens) (UniProt P32780); conditions: cited from earlier work; remark: listed apart in the source
[3] = molecular target: TFIIH Tfb1 PH (Saccharomyces cerevisiae) (UniProt P32776); conditions: cited from earlier work
Sequence of TFIIH Tfb1 PH (Saccharomyces cerevisiae) (P32776 1-115): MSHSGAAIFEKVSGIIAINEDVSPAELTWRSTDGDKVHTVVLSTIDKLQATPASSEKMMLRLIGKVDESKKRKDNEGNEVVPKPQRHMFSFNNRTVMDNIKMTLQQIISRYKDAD

[4] = molecular target: T1, PH domain of fission yeast (Schizosaccharomyces pombe) Tfb1, residues 1-108 (Schizosaccharomyces pombe, UniProt O13745 1-108); assay: ITC; VP-ITC; syringe 300 uM peptide, cell 2 ml of 30 uM spPH domain; 25 x 20 ul injections; 20 mM potassium phosphate pH 6.8, 20°C; conditions: both partners purified
T1 construct: General transcription and DNA repair factor IIH subunit tfb1 (spTfb1), Schizosaccharomyces pombe, UniProt name TFB1_SCHPO, N-terminal PH domain, residues 1-108; 15N-labelled in the NMR titration; Residues of the vector may be left at the N-terminus after thrombin cleavage (surmised); also called spPH; spPH domain; source: E. coli BL21-Gold (DE3), pET15b, purified (His-tag resin, thrombin …)
T1 sequence (looked up): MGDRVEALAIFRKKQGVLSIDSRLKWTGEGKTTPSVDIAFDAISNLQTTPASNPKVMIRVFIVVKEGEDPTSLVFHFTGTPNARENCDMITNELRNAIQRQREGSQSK

Sequence of TFIIH p62 PH (Homo sapiens) (P32780 1-108): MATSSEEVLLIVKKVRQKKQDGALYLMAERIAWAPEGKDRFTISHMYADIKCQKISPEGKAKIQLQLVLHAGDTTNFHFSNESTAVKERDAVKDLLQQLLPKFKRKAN

Molecule: TFIIEα acidic domain (from UniProt P29083)
Kd [1]: 95 nM

Molecule: hXPC acidic string (from UniProt Q01831)
Kd [2]: 58 nM

Molecule: scRad4 acidic string (from UniProt P14736)
Kd [3]: 50 nM

Kd [4]: 148 ± 41.3 nM
B1: spTfa1(332-350) peptide, acidic segment of fission yeast Tfa1 (peptide, UniProt Q9P3W1 332-350, looked up)
peptide: DSENVDDEEDDDFLDVTTA
notes: source: synthetic peptide, bought: GenScript

Kd [4]: 12.4 ± 6.5 nM
B2: spTfa1(416-434) peptide, C-terminal acidic segment of fission yeast Tfa1 (peptide, UniProt Q9P3W1 416-434, looked up)
peptide: NGFNEDDEDDEDEADFEDV
notes: Tfa1 (homologue of human TFIIEalpha), Schizosaccharomyces pombe, residues 416-434; source: synthetic peptide, bought: GenScript

Kd [4]: 52.1 ± 13.5 nM
B3: spRhp41(4-22) peptide, N-terminal acidic string of fission yeast Rhp41 (peptide, UniProt Q10445 4-22, looked up)
peptide: DEDNTYSDDEEWLDLDLGL
notes: Rhp41 (homologue of human XPC and S. cerevisiae Rad4), Schizosaccharomyces pombe, residues 4-22 (holds Trp15, Leu16, Leu18, Leu20, Leu22); source: synthetic peptide, bought: GenScript
